Numbered stars: 1 amine (or outer) side, 2 acyl side, 3 side chain; on linkers, the order of the positions; unused ones are H or OH. Bridge positions count the residues as written; N and C are the ends. Square brackets hold non-standard residues; d marks the D form. Side chains are listed from the residue outwards. Ends that are not written are not given here. * marks the point of attachment. C18 diacid = O=C(O)CCCCCCCCCCCCCCCCC(=O)*; γGlu = O=C(O)[C@H](CCC(=O)[*:2])N[*:1]; Dab = NCC[C@H](N)C(=O)O; Aib = CC(C)(N)C(=O)O
T1: human calcitonin receptor (human, UniProt P30988 25-474)
T1 sequence (looked up): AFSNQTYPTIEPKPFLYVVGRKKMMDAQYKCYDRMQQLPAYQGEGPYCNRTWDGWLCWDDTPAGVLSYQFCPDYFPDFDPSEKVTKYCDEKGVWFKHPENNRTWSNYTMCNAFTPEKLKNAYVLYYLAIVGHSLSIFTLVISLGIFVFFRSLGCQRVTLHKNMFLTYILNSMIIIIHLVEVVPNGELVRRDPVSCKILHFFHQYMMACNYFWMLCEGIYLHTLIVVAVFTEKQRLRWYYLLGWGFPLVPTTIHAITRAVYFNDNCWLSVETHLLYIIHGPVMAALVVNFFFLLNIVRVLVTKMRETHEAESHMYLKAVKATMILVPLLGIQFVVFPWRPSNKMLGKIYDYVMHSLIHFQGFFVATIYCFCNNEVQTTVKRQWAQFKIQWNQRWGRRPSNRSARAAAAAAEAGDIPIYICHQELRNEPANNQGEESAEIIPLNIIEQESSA

T2: human amylin receptor (calcitonin receptor co-expressed with receptor activity modifying protein, RAMP3) (human, UniProt P30988 25-474; O60896 24-148)
T2 sequence (looked up) 1: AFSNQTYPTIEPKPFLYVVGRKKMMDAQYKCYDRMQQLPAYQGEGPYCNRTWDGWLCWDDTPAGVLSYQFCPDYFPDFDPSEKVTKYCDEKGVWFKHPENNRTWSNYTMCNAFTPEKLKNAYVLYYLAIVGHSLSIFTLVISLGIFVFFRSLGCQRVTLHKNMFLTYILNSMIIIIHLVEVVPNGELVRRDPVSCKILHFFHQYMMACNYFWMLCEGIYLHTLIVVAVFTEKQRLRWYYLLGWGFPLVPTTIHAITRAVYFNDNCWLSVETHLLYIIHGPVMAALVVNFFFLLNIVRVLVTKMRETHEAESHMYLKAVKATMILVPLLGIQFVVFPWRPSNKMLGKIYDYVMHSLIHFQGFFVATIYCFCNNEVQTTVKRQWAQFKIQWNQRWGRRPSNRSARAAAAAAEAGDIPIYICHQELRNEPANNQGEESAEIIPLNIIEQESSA
T2 sequence (looked up) 2: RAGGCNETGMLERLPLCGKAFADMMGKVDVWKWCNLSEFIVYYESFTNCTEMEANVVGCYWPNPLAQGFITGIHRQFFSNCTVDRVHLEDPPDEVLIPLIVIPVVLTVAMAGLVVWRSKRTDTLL


Assays:
[1] = target: T1, human calcitonin receptor; experiment: cell-based or functional assay
[2] = target: T2, human amylin receptor (calcitonin …); experiment: cell-based or functional assay

| EC50 (cAMP production) [1] [pM] | EC50 (cAMP production) [2] [pM] | Ratio (EC50 hCTR / EC50 hAMYR3) [2] | Binder |
| --- | --- | --- | --- |
| 8210 | 243 | 34 | K([γGlu-C18 diacid])KCNTATCATQRLANFLVHSS[Dab]NFGPILPPTNVGSNTY-NH2 (disulfide 3-8; N-terminus assumed; SMILES CC[C@H](C)[C@H](NC(=O)[C@@H]1CCCN1C(=O)CNC(=O)[C@H](Cc1ccccc1)NC(=O)[C@H](CC(N)=O)NC(=O)[C@H](CCN)NC(=O)[C@H](CO)NC(=O)[C@H](CO)NC(=O)[C@H](Cc1c[nH]cn1)NC(=O)[C@@H](NC(=O)[C@H](CC(C)C)NC(=O)[C@H](Cc1ccccc1)NC(=O)[C@H](CC(N)=O)NC(=O)[C@H](C)NC(=O)[C@H](CC(C)C)NC(=O)[C@H](CCCNC(=N)N)NC(=O)[C@H](CCC(N)=O)NC(=O)[C@@H](NC(=O)[C@H](C)NC(=O)[C@@H]1CSSC[C@H](NC(=O)[C@H](CCCCN)NC(=O)[C@@H](N)CCCCNC(=O)CC[C@H](NC(=O)CCCCCCCCCCCCCCCCC(=O)O)C(=O)O)C(=O)N[C@@H](CC(N)=O)C(=O)N[C@@H]([C@@H](C)O)C(=O)N[C@@H](C)C(=O)N[C@@H]([C@@H](C)O)C(=O)N1)[C@@H](C)O)C(C)C)C(=O)N[C@@H](CC(C)C)C(=O)N1CCC[C@H]1C(=O)N1CCC[C@H]1C(=O)N[C@H](C(=O)N[C@@H](CC(N)=O)C(=O)N[C@H](C(=O)NCC(=O)N[C@@H](CO)C(=O)N[C@@H](CC(N)=O)C(=O)N[C@H](C(=O)N[C@@H](Cc1ccc(O)cc1)C(N)=O)[C@@H](C)O)C(C)C)[C@@H](C)O) [Peptide 29 (SEQ ID NO: 29)] |
| 10500 | 873 | 12 | K([γGlu-C18 diacid])KCNTATCATQRLANFL[Aib]HSS[Dab]NFGPILPPTEVGSNTY-NH2 (disulfide 3-8; N-terminus assumed; SMILES CC[C@H](C)[C@H](NC(=O)[C@@H]1CCCN1C(=O)CNC(=O)[C@H](Cc1ccccc1)NC(=O)[C@H](CC(N)=O)NC(=O)[C@H](CCN)NC(=O)[C@H](CO)NC(=O)[C@H](CO)NC(=O)[C@H](Cc1c[nH]cn1)NC(=O)C(C)(C)NC(=O)[C@H](CC(C)C)NC(=O)[C@H](Cc1ccccc1)NC(=O)[C@H](CC(N)=O)NC(=O)[C@H](C)NC(=O)[C@H](CC(C)C)NC(=O)[C@H](CCCNC(=N)N)NC(=O)[C@H](CCC(N)=O)NC(=O)[C@@H](NC(=O)[C@H](C)NC(=O)[C@@H]1CSSC[C@H](NC(=O)[C@H](CCCCN)NC(=O)[C@@H](N)CCCCNC(=O)CC[C@H](NC(=O)CCCCCCCCCCCCCCCCC(=O)O)C(=O)O)C(=O)N[C@@H](CC(N)=O)C(=O)N[C@@H]([C@@H](C)O)C(=O)N[C@@H](C)C(=O)N[C@@H]([C@@H](C)O)C(=O)N1)[C@@H](C)O)C(=O)N[C@@H](CC(C)C)C(=O)N1CCC[C@H]1C(=O)N1CCC[C@H]1C(=O)N[C@H](C(=O)N[C@@H](CCC(=O)O)C(=O)N[C@H](C(=O)NCC(=O)N[C@@H](CO)C(=O)N[C@@H](CC(N)=O)C(=O)N[C@H](C(=O)N[C@@H](Cc1ccc(O)cc1)C(N)=O)[C@@H](C)O)C(C)C)[C@@H](C)O) [Peptide 30 (SEQ ID NO: 30)] |

The next lines start with the binder.

| Binder | EC50 (cAMP production) [1] [pM] | EC50 (cAMP production) [2] [pM] | Ratio (EC50 hCTR / EC50 hAMYR3) [2] |
| --- | --- | --- | --- |
| K([γGlu-C18 diacid])KCNTATCATQRLANFLVHSS[Dab]NFGPILPPTEVGSNTY-NH2 (disulfide 3-8; N-terminus assumed; SMILES CC[C@H](C)[C@H](NC(=O)[C@@H]1CCCN1C(=O)CNC(=O)[C@H](Cc1ccccc1)NC(=O)[C@H](CC(N)=O)NC(=O)[C@H](CCN)NC(=O)[C@H](CO)NC(=O)[C@H](CO)NC(=O)[C@H](Cc1c[nH]cn1)NC(=O)[C@@H](NC(=O)[C@H](CC(C)C)NC(=O)[C@H](Cc1ccccc1)NC(=O)[C@H](CC(N)=O)NC(=O)[C@H](C)NC(=O)[C@H](CC(C)C)NC(=O)[C@H](CCCNC(=N)N)NC(=O)[C@H](CCC(N)=O)NC(=O)[C@@H](NC(=O)[C@H](C)NC(=O)[C@@H]1CSSC[C@H](NC(=O)[C@H](CCCCN)NC(=O)[C@@H](N)CCCCNC(=O)CC[C@H](NC(=O)CCCCCCCCCCCCCCCCC(=O)O)C(=O)O)C(=O)N[C@@H](CC(N)=O)C(=O)N[C@@H]([C@@H](C)O)C(=O)N[C@@H](C)C(=O)N[C@@H]([C@@H](C)O)C(=O)N1)[C@@H](C)O)C(C)C)C(=O)N[C@@H](CC(C)C)C(=O)N1CCC[C@H]1C(=O)N1CCC[C@H]1C(=O)N[C@H](C(=O)N[C@@H](CCC(=O)O)C(=O)N[C@H](C(=O)NCC(=O)N[C@@H](CO)C(=O)N[C@@H](CC(N)=O)C(=O)N[C@H](C(=O)N[C@@H](Cc1ccc(O)cc1)C(N)=O)[C@@H](C)O)C(C)C)[C@@H](C)O) [Peptide 28 (SEQ ID NO: 28)] | 9140 | 390 | 23 |
| K([γGlu-γGlu-C18 diacid])CNIATCATQRLANFLVHSS[Dab]NFGPILPPTNVGSRTY-NH2 (disulfide 2-7; N-terminus assumed; SMILES CC[C@H](C)[C@@H]1NC(=O)[C@H](CC(N)=O)NC(=O)[C@@H](NC(=O)[C@@H](N)CCCCNC(=O)CC[C@H](NC(=O)CC[C@H](NC(=O)CCCCCCCCCCCCCCCCC(=O)O)C(=O)O)C(=O)O)CSSC[C@@H](C(=O)N[C@@H](C)C(=O)N[C@H](C(=O)N[C@@H](CCC(N)=O)C(=O)N[C@@H](CCCNC(=N)N)C(=O)N[C@@H](CC(C)C)C(=O)N[C@@H](C)C(=O)N[C@@H](CC(N)=O)C(=O)N[C@@H](Cc2ccccc2)C(=O)N[C@@H](CC(C)C)C(=O)N[C@H](C(=O)N[C@@H](Cc2c[nH]cn2)C(=O)N[C@@H](CO)C(=O)N[C@@H](CO)C(=O)N[C@@H](CCN)C(=O)N[C@@H](CC(N)=O)C(=O)N[C@@H](Cc2ccccc2)C(=O)NCC(=O)N2CCC[C@H]2C(=O)N[C@H](C(=O)N[C@@H](CC(C)C)C(=O)N2CCC[C@H]2C(=O)N2CCC[C@H]2C(=O)N[C@H](C(=O)N[C@@H](CC(N)=O)C(=O)N[C@H](C(=O)NCC(=O)N[C@@H](CO)C(=O)N[C@@H](CCCNC(=N)N)C(=O)N[C@H](C(=O)N[C@@H](Cc2ccc(O)cc2)C(N)=O)[C@@H](C)O)C(C)C)[C@@H](C)O)[C@@H](C)CC)C(C)C)[C@@H](C)O)NC(=O)[C@H]([C@@H](C)O)NC(=O)[C@H](C)NC1=O) [Peptide 27 (SEQ ID NO: 27)] | 731 | 134 | 5 |

From US20220204580A1 (AstraZeneca / MedImmune, published 2022)
